Reference: patent US20240358834A1 (University of Pennsylvania, published 2024)
Residue numbers refer to the chain shown, from its start.

T1: human CD19 protein with a biotinylated AviTag (Acrobiosystems) (human, UniProt P15391 20-291, biotinylated AviTag)
T1 construct: Captured on streptavidin-coated microplate wells; also called biotinylated-AviTag-CD19; hCD19; not shown: AviTag
T1 sequence (looked up): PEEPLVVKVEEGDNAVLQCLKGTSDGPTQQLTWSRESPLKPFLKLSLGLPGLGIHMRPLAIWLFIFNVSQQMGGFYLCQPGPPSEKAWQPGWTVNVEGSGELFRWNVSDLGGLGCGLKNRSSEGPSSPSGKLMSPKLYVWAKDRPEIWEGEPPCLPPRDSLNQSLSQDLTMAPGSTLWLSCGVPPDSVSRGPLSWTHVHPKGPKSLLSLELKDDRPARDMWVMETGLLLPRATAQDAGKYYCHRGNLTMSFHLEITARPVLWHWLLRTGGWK

B1: scFv 18 (scFv)
scFv: QSALTQTASVSGSLGQKVTISCTGSRSNIGANYVGWYQQVPGIGPRTVIFGYNYRPSGVPDRFSSSKSGNSATLTISGLQAEDEAEYYCSTWDSSLNAYVFGSGTQLTVLGGGSSRSSSSGGGGSGGGGEVPLVESGGDLVKPGGSLRLSCVASGFTLSNYGMSWVRQSPGKGLQWVAAIRSGGNTYYADAVKGRFTISRDNAKNTLYLQMNSLRAEDTAVYYCASQWGDWGHFEYWGQGTLVTVSSASTTAPSVTSGQAGQHHHHHHGAYPYDVPDYAS
notes: Canine scFv (VL-linker-VH); also called P4-12
B2: scFv 25 (scFv)
scFv: DIVMTQTPLSLSVSPGETASISCKASQSLLHSNGNTYLNWFRQKPGQSPQVLIYQVSNRDTGVPDRFSGSGSGTDFTLRISRVEADDAGVYYCGQGIQYPPTFGAGTKVELKGGSSRSSSSGGGGSGGGGEEQLVEFGGDLVKPGGSLRLSCVASGFTFSSLSMNWIRQAPGKGLQWVSQISPDGTITGYTDAVKGRFTISRDNAKNTLYLQMNSLRDEDTAIYYCAKSRYTDTYPFDYWGPGTLVTVSSESPSPPNLTSGQAGQHHHHHHGAYPYDVPDYAS
notes: Canine scFv (VL-linker-VH); also called P3-40
B3: scFv 29 (scFv)
scFv: QSVLNQPPSVSVSLGQTATISCSGESLNKYYTQWFQQKAGQAPVLVIYKDTERPSGIPDRFSGSSSGNTHTLTISGARAEDEADYYCESVDSTDTYVFGSGTQLTILGGGSSRSSSSGGGGSGGGGEVHLVESGGDLVKPGGSLRLSCVGSGFTFSSYWMSWVRQAPGKGLQWIADISDSGSSTDYADAVKGRFTISRDNAKNTLYLQMNSLRAEDTAMYYCARGLGMDYWGHGTSLFVSSASTTAPSVTSGQAGQHHHHHHGAYPYDVPDYAS
notes: Canine scFv (VL-linker-VH); also called P3-51
B4: scFv 26 (scFv)
scFv: SSVLTQPPSVSVSLGQTATISCSGESLSKYYTQWFQQKAGQAPILVIYKDTERPSGIPDRFSGSSSGNTHTLTISGARAEDEADYYCESLVDSDAYMFGSGTQLTVLGGGSSRSSSSGGGGSGGGGEVQLVETGGDLVKPGGSLRLSCVGSGFTFSSYWMSWVRQAPGKGLQWIADISDSGSSTDYADAVKGRFTISRDNAKNTLYLQMNSLRAEDTAMYYCARGLGMDYWGHGTSLFVSSASTTAPSVTSGQAGQHHHHHHGAYPYDVPDYAS
notes: Canine scFv (VL-linker-VH); also called P3-03
B5: scFv 23 (scFv)
scFv: DIVMTQTPLSLSVSPGEPASISCKASQSLLHSNGNTYLYWFRQKPGQSPQRLIYLVSNRDAGVPDRFSGSGSGTDFTLRISRVEADDSGIYYCGQGKQDPITFGEGTHLEIKGGSSRSSSSGGGGSGGGGELTLQESGPGLVKPSQTLSLTCVVSGGSVTTSDYWNWLRQRPGRGLEYMGYWKGRTEYNPAFQGRISITADTAKNQFSLQLNSVTADDTAIYYCAHWGSGNLDYWGPGTLVTVSSESPSPPNLTSGQAGQHHHHHHGAYPYDVPDYAS
notes: Canine scFv (VL-linker-VH); also called P3-37
B6: scFv 21 (scFv)
scFv: QPVLTQPPSVSVSLGQTATISCSGESLSKYYAQWFQQKAGQAPVLVIYKDTERPSGIPDRFSGSSSGNTHTLTISGARAEDEADYYCESAVSSDTAVFGSGTQLTVLGGGSSRSSSSGGGGSGGGGEVQLVESGGDMVKPGGSLRLSCVASGFTFSSFWMYWVRQAPGKGLQWVGGINSGGSITSYADAVKGRFTISRDNARNTLYLQMDSLRDEDTAVYYCAKPDIYGSFDHWGQGTLVTVSSESPSPPNLTSGQAGQHHHHHHGAYPYDVPDYAS
notes: Canine scFv (VL-linker-VH); also called P3-04; P3-34
B7: scFv 3 (scFv)
scFv: QSVLNQPPSVSGALGQTVTISCSGSHTNIGSGFDVQWYQQLPGKSPQTLVYANINRPSGVPARFSGSKSGSTATLTITGVQAEDEADYYCQSYDDNFDGHVFGSGTQLTVLGGGSSRSSSSGGGGSGGGGEVQLVQSGGDLVKPGGSLRLSCVASGFTFSNYTMSWVRQAPGQGLQWVAYINYDGSITYYAEAVKGRFTVSRDNAKNTLYLQMNSLRAEDTAVYFCVKETFMIPTEWGQGTLITVSSASTTAPSVTSGQAGQHHHHHHGAYPYDVPDYAS
notes: Canine scFv (VL-linker-VH); also called scFv_03; P3-05
B8: scFv 2 (scFv)
scFv: SYVLTQSPSLSGSLGQKVTISCTGSRSNLGGNYVGWYQQVPGMAPRNVIYANDFRPSRIPARFSASKSGTSATLTISGLQAEDEADYFCSSWDDDLGSHVFGSGTQLTILGGGSSRSSSSGGGGSGGGGEEQLVEFGGDLVKPGGSLRLSCVASGFSFSSYDMSWVRQAPGKGLQWVASTNFDGSRTYYTDAVEGRFTISRDNARNTVYLQMNSLRAEDTAVYYCARGMGSWGASTFGYWGQGTLVTVSSASTTAPSVTSGQAGQHHHHHHGAYPYDVPDYAS
notes: Canine scFv (VL-linker-VH); also called scFv_02; P3-21
B9: scFv 22 (scFv)
scFv: QPVLTQPPSVSGSLGQRVTISCTGSSSNVGYGDYVGWYQQLPGTSPRTLIYSSSSRPSGVPDRFSGSRSGSTATLTISGLQAEDEADYHCSSYDTSLNGFVFGSGTQLTILGGGSSRSSSSGGGGSGGGGELTLQESGPGLVKPAQTLSLTCTVSGDSVTSSHFWHWIRQRPGRGLEWMGYWSDITIYSPTFQGRISITVDTARNQFSLHLNSVTTEDSAVYFCARYNGYVDYLDVWGQGTLITVSSASTTAPSVTSGQAGQHHHHHHGAYPYDVPDYAS
notes: Canine scFv (VL-linker-VH); also called P3-09; P3-11
B10: scFv 31 (scFv)
scFv: QSALTQPSSVSVSLGQTATISCSGESLTKYYVQWFQQKAGQAPVLVIYRDTERPSGIPDRFSGSSSGNTHTLTISGARAEDEADYYCESMDGREAYVFGSGTQLTVLGGGSSRSSSSGGGGSGGGGEVQLVESGGDLVKPGGSLRLSCVASGFTFSSYWMSWVRQAPGKGLQWIADISDSGSSTDYADAVKGRFTISRDNAKNTLYLQMNSLRAEDTAMYYCARGLGMDYWGHGTSLFVSSASTTAPSVTSGQAGQHHHHHHGAYPYDVPDYAS
notes: Canine scFv (VL-linker-VH); also called P4-09
B11: scFv 16 (scFv)
scFv: QSVLTQPTSVSGSLGQRVTISCTGSSSNVGYGNYVGWYQQLPGTGPRTLIYGSHYRPSGVPDRFSGSSSGSSATLTISGLQAEDEADYYCSSYDSTLSGYVFGSGTQLTILGGGSSRSSSSGGGGSGGGGEVQLVESGGDLVKPGGSLRLSCVGSGFTLSSYWMSWVRQAPGKGLQWIAEISGSGNTIYYGDAVKGRFTISRDNAKNTLYLQMNSLRDEDTAVYYCATEYYWNIDNWGQGTLVTVSSESPFPPNLTSGQAGQHHHHHHGAYPYDVPDYAS
notes: Canine scFv (VL-linker-VH); also called P3-33; P4-01
B12: scFv 28 (scFv)
scFv: QSALTQPSSVSVSLGQTATISCSGESLNKYYVQWFQQKAGQVPILVIYRDTERPSGIPDRFSGSSSGNTHTLTITGTRAEDEADYYCESLVNDNTYVFGSGTQLTVLGGGSSRSSSSGGGGSGGGGEVQLVETGGDLVKPGGSLRLSCVGSGFTFSSYWMSWVRQAPGKGLQWIADISDSGSSTDYADAVKGRFTISRDNAKNTLYLQMNSLRAEDTAMYYCARGLGMDYWGHGTSLFVSSASTTAPSVTSGQAGQHHHHHHGAYPYDVPDYAS
notes: Canine scFv (VL-linker-VH); also called P3-30
B13: scFv 20 (scFv)
scFv: QSVLNQPPSVSVSLGQTATISCSGESLSKYYAQWFQQKAGQVPVLVIYKDTERPSGIPDRFSGSSSGNTHTLTISGARAEDEADYYCESEVSPDTIVFGGGTHLTVLGGGSSRSSSSGGGGSGGGGEVQLVESGGDLVKPGGSLRLSCVASGFTFSSYAMSWVRQAPGEGLQWVAYINSAGSTTYYADAVKGRFTISRDNARNTVYLQMNSLRAEDTAVYYCGRYYYGLDYWGPGTSVFVSSESPSPPNLTSGQAGQHHHHHHGAYPYDVPDYAS
notes: Canine scFv (VL-linker-VH); also called P3-12
B14: scFv 32 (scFv)
scFv: QSVLTQPASVSVSLGQTATISCSGESLSKYYAQWFQQKAGQAPVLVIYKDTERPSGIPDRFSGSSSGNTHTLTITGIQAADEADYYCQSYDDNLDGYVFGSGTQLTVLGGGSSRSSSSGGGGSGGGGEVQLVESGGDLVKPGGSLRLSCVGSGFTFSSYWMSWVRQAPGKGLQWIADISDSGSSTDYADAVKGRFTISRDNAKNTLYLQMNSLRAEDTAMYYCARGLGMDYWGHGTSLFVSSASTTAPSVTSGQAGQHHHHHHGAYPYDVPDYAS
notes: Canine scFv (VL-linker-VH); also called P4-11
B15: scFv 30 (scFv)
scFv: B14 scFv with A32T, T75S, I77A, A80E, L94V
notes: Canine scFv (VL-linker-VH); also called P4-02
B16: scFv 27 (scFv)
scFv: B14 scFv with S2P, A8P, A80E, A83G, Y86H, Q88H, D92E
notes: Canine scFv (VL-linker-VH); also called P3-18
B17: scFv 19 (scFv)
scFv: QAVLTQPASVSGPLGQRVTISCSGSTNNIGIVGAAWYQQFPGKAPKLLVYSDGSRPSGVPDRFSGSNSGNSATLTISGLQAEDEADYYCQSVDATHGTILFGGGTQLTVLGGGSSRSSSSGGGGSGGGGEVQLVETGGDLVKPAGSLRLSCAASGFPFSGYSMTWVRQAPEKGLQLVAGINSDGSHTYYTDDVKGRFTVSRDNTKYILYLQMNSLRVEDTAIYYCGSHSWGNFHYWGQGTLVTVSSESPSPPNLTSGQAGQHHHHHHGAYPYDVPDYAS
notes: Canine scFv (VL-linker-VH); also called P3-35
B18: scFv 17 (scFv)
scFv: QPVLTQPPSVSAALGQRVTISCTGSKTNIGSGYDVQWYQQLPGKSPKTIIYGNSNRPSGVPARFSGSKSGSIATLTITGIQAEDEADYYCQSFDDNVDGYVFGSGTQLTILGGGSSRSSSSGGGGSGGGGEVPLVESGGDLVKPGGSLRLSCVASGFTFSSYGMSWVRQAPGKGLQWVAYINGGGSSTSYADAVRGRFTISRDNAENTLYLQMNSLRADDTAVYYCSNYYGIYWDSDYWGQGTLVTVSSESPSPPNLTSGQAGQHHHHHHGAYPYDVPDYAS
notes: Canine scFv (VL-linker-VH); also called P4-05A; P4-05B

target: T1, human CD19 protein with a biotinylated …; assay: phage ELISA, biotinylated AviTag CD19 on streptavidin wells; signal ratio to FMC63 standard
Source text: To identify unique human CD19-binding monoclonal scFv from the panned libraries, individual phage antibody clones were expanded, assessed for binding to CD19 by ELISA, and subjected to nucleotide sequencing to identify those clones that were unique. A total of 84 scFvs were randomly selected from the panned libraries (70 from P3 and 14 from P4).

ELISA hCD19 (ratio FMC63)	Binder
0.27 ratio to FMC63	B1
0.15 ratio to FMC63	B2
0.83 ratio to FMC63	B3
0.65 ratio to FMC63	B4
0.36 ratio to FMC63	B5
0.71 ratio to FMC63	B6
0.32 ratio to FMC63	B7
0.49 ratio to FMC63	B8
0.21 ratio to FMC63	B9
0.35 ratio to FMC63	B10
0.41 ratio to FMC63	B11
0.33 ratio to FMC63	B12
0.47 ratio to FMC63	B13
0.2 ratio to FMC63	B14
0.22 ratio to FMC63	B15
0.35 ratio to FMC63	B16
0.26 ratio to FMC63	B17
0.66 ratio to FMC63	B18
